The source of these data is paper PMC10821612.

Assay [1] concerns the target AMS0229 E1E2 glycoprotein on HCV pseudoparticles (HCVpp) (Hepatitis C virus (genotype 1a)).
The target in assay [2] is UKNP2.4.1 E1E2 glycoprotein on HCV pseudoparticles (HCVpp) (Hepatitis C virus (genotype 2)).
Assay [3] deals with UKNP1.2.3 E1E2 glycoprotein on HCV pseudoparticles (HCVpp) (Hepatitis C virus).

For the substance “Soluble CD81 LEL with Strep-tag (soluble version of the long external loop of the CD81 receptor) (domain or fragment)”, the IC50 of neutralisation of HCVpp infection of Huh-7 cells (luciferase) in assay [1] worked out at 92 µg/mL; in assay [2] it was 82 µg/mL; in assay [3], 85 µg/mL.
